Reference: patent US20110217317A1 (published 2011)
Substitutions are numbered along the chain they refer to.

T1: Rhesus D antigen (human, UniProt Q02161 2-417)
T1 construct: whole, on cells; Presented on RhD-positive erythrocytes in all assays; also called RhD; RhD antigen
T1 sequence (looked up): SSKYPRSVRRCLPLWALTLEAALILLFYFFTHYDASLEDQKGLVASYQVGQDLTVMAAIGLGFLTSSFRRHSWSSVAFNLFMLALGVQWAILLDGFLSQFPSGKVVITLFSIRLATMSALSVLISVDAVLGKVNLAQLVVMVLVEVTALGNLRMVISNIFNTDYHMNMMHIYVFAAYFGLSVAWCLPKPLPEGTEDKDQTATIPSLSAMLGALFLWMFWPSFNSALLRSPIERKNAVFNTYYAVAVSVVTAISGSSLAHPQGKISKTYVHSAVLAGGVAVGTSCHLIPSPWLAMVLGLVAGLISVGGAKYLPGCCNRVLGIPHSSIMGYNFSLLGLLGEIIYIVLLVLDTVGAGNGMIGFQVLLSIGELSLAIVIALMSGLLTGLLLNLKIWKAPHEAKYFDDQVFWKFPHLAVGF

B1: RhD159.119B09 (Fab, V domains shown)
VH: EVQLVETGGGLVQPGGSLRLSCAASGFSFRSYDMNWVRQAPGKGLEWVSYISGRGSTTYYADSVKGRFTISRDNAKNSLYLQMNSLRAEDTAVYYCARDLYGDYDPKSYYYYAMDVWGHGTTVTVSS
VL: EIVMTQSPGTLSLSPGERATLSCRASHTVSSGYLAWYQQKPGQAPRLLIYGASNRATGVPDRFGGSGSGTDFTLTISRLEPEDSAVYFCQQYGTSPGVTFGQGTRLEIER
notes: Tested as Fab (periplasmic extract)
B2: RhD294.119E10 (Fab, V domains shown)
VH: QVQLVESGGGVVQPGRSLRLSCAASGFSFSNYGMHWVRQAPGKGLEWVAVISYDGSEKYYADSVKGRFTISRDNSKKTLYLQMNSLRAEDTAMYYCKNKVGATRRAVVAVDIWGQGTMVTVSS
VL: EIVLTQSPGTLSLSPRERATLSCRANQYVNSNHLAWYQQKPGQAPRLLLYGASRRATGIPDRFSGSGTGTDFTLIISRLEPEDFAVYFCQLYDHSRPMYTFGQGTKLEIKR
notes: as for B1
B3: RhD296.126A03 (Fab, V domains shown)
VH: EVQLVESGGGVVQPGRSLRLSCEASGFTFSNYGMHWFRQAPGKGLEWVAIIWYDGSNKHYADSVKGRFTISRDNSKNTLYLQMNSLRAEDTAVYFCAREIASRGYSRYLYYFDSWGQGTLVTVSS
VL: DIQMTQSPSSLSASVGDRVTITCRASQSISSYLNWYQQKPGKAPKLLIFAASSLQSGVPSRFSGSGSGTDFSLTISSLQPEDFATYYCQQSYSSLALTFGGGTKVEIKR
notes: as for B1
B4: RhD160.119C07 (Fab, V domains shown)
VH: EVQLVESGGGVVQPGRSLRLSCAASGFTFSNYGMHWVRQAPGKGLEWVAVIWYDGSNRFYADSVKGRFTISRDNSKNTLYLQMNNLRAEDTALYSCAREITTTVVVRRHYLMDIWGQGTTVTVSS
VL: DIQLTQSPSSLSASVGDRVSITCRASQGISNSLAWYQQKPGKVPKLLIYAASTLQSGVPSRFSGGGSGTDFTLTISSLQPEDVATYYCQKYNSAPFAFGPGTKVDIKR
notes: as for B1
B5: RhD295.119B11 (Fab, V domains shown)
VH: QVQLVESGGGLVQPGGSLRLSCVGSGFTFRSFDMNWVRQAPGKGLEWISYINSRGNTRYYVDSVKGRFTISRDNAKNSLYLQMNSLRAEDTAVYYCARDLYGDYDPKSYYYYGMDVWGQGTMVTVSS
VL: EIVLTQSPGTLSLSPGERATLSCRASQSFSSGYLAWYQQKPGQAPRLLIYGASNRATGIPDRFSGSGSGTDFTLTISRLEPEDFAVYYCQHYGSSPPITFGQGTRLEIKR
notes: as for B1
B6: RhD161.119E09 (Fab, V domains shown)
VH: EVQLVESGGGVVQSGRSLRLSCAASGFTFSNNGMHWVRQAPGKGLEWVAFIWYDGSNKYYADSVKGRFTISRDNSKNTLYLQMDGLRAEDSAVYYCAREEIAARLYSRYHYAMDVWGQGTMVTVSS
VL: DIQMTQSPSFLSASVGDRVTITCRASQGIRRYLAWFQQKPGKAPKLLIFSASTLQSGVPSRFSGSGSGTEFTLTISSLQPEDFATYYCQQLSSYPPYTFGQGTKLEIKR
notes: as for B1
B7: RhD300.134H09 (Fab, V domains shown)
VH: QVQLVESGGGVVQPGRSLRLSCAASGFTFSSYGMHWVRQAPGKGLEWVAVIWYDGSNKYYADSVKGRFTISRDNSKNTLYLQMNSLRAEDTAVYYCAREFYTRSGLWSQGYSYYMDVWGKGTTVTVSS
VL: QTVVTQEPSFSVSPGGTVTLTCGLSSGSVSARYYPSWYQQTPGQPPRTLIHSTNTRSSGVPDRFSGSILGNKAALTITGAQADDESDYYCVLYMGSGPWVFGGGTKLTVLG
notes: as for B1
B8: RhD306.223E11 (Fab, V domains shown)
VH: QVQLVESGGGVVQPGRSLRLSCAASGFTFSSYGMHWVRQAPGKGLEWVAVIWYDGSNKYYADSVKGRFTISRDNSKNTLYLQMNTLRDDDTAVYYCAREGTLYSSSWYRRYYYYGMDAWGQGTTVTVSS
VL: EIVLTQSPGTLSLSPGERVTLSCRPSRYIASDYLAWYQLRPGQAPKLLIYGASSRATGIPDRFSGVGSPTDFTLTISRLEPEDFAMYYCHYSGGSPPYPFGQGTRLDIKR
notes: as for B1
B9: RhD302.160B10 (Fab, V domains shown)
VH: QVQLVESGGGVVQPGRSLRLSCAASGFTFSSYGMHWVRQAPGKGLEWVAFISYDGSNKYYADSVKGRFTISRDNSKNTLSLQMNSLRAEDTAVYYCAKEHGYYRSSWYRNYYYYGMDVWGQGTTVTVSS
VL: DIQLTQSPSSLSASVGDRVTITCRASQSISSYLNWYKQRPGKAPKLLIYAASTLQSGVPSRFSGSGSGTDFALTISSLQAEDFATYYCQQTYSTLWTFGQGTKVEITR
notes: as for B1
B10: RhD303.160B11 (Fab, V domains shown)
VH: B9 VH with G15E, F50V, S80Y, E99D, H100E, G101V, Y102G, R104S, N110R, G115A
VL: EIVLTQSPGTLSLSPGETATLSCRASQSVSDRDLAWYQQKSGQSPRLLMYGGSTRAPGIPVRFSGSGSGTEFTLTISSLQSEDFAIYYCQHYHDWPPTFGQGTRLEIKR
notes: as for B1
B11: RhD304.164B06 (Fab, V domains shown)
VH: QVQLVQSGGGVVQPGRSLRLSCAASGFTFSSYGMHWVRQAPGKGLEWVAVIWYDGSNKYYADSVKGRFTISRDNSKNTLYLQMNSLRAEDTAVYYCARETVVVAAKIRNHYYYAMDVWGQGTTVTVSS
VL: DIQMTQSPSSLSASLGGTVTLTCRSSQFISRYLNWYQQHPGKVPRLLISGASRLQRGVPSRFTGGGSGTDFTLTIKNVQPDDIATYFCQHSYRSGRAFGQGTTVEVKR
notes: as for B1
B12: RhD317.144A02 (Fab, V domains shown)
VH: QVQLQESGPGLVKPSGTLSLTCAVSGGSIRGSNWWSWVRQPPGKGLEWIGEIHHGGSTNYNPSLKSRVTISVDKSKNRFSLKLSSVTAADTAVYYCARGTSYYDSSGYSFRGLVAFDIWGQGTMVTVSS
VL: EIVLTQSPGTLSLSPGERATLSCRASQSVSSAFLAWYQQKPGQAPRLLIYGASSRATGIPDRFSGSGSGTDFTLTISRLEPEDFAVYYCQQYGSFSITFGQGTRLEIKR
notes: as for B1
B13: RhD305.181E06 (Fab, V domains shown)
VH: QVQLVESGGGVVQPGRSLRLSCAASGFTFSSYGMHWVRQAPGKGLEWVAGIWYDGSNKYYADSVKGRFTISRDNSRNTMYLQMNSLRAEDTAVYYCAREQGGYSSSWYRRYYYYNMDLWGQGTTVTVSS
VL: EIVLTQSPGSLSLSPGERATLSCRASQSVSSSYLAWYQQKPGQAPRLLIYGPSSRATGIPDRFSGSGSGTDFTLTISRLEPEDFAVYYCQHFGNSRGTFGQGTKVEIRR
notes: as for B1
B14: RhD299.127A12 (Fab, V domains shown)
VH: QVQLVESGGGVVQPGRSLRLSCAASGFTFSNFGMHWVRQAPGKGLEWVAVIWYDGSNKDYADSVKGRFTISRDNSKRTLYLQMNSLRAEDTAVYYCARELARGRLRDLDYWGQGTLVTVSS
VL: QAVVTQEPSLTVSPGGTVTLTCASSTGAVTTGYYPNWFQQKPGQAPRALIYSTSKKHSWTPARFSGSLLGGKAALTLSGVQPEDEAEYYCLLFYGGAQLGVFGGGTKLTVLG
notes: as for B1
B15: RhD319.187A11 (Fab, V domains shown)
VH: QVQLVESGGGVVQPGRSLRLSCAASGFTFSTYGMHWVRQAPGKGLEWVAVIWYDGSNKNYADSVKGRFTISRDNSKNTLYLQMNSLRAEDTAVYYCARDLQGYRSSWYRMYYYYGMDVWGQGTTVTVSS
VL: B14 VL with A2T, T31S, K55N, F93Y, L99R, G100W, K107I
notes: as for B1
B16: RhD307.230E11 (Fab, V domains shown)
VH: QVQLVETGGGVVQPGRSLRLSCAASGFTFSSYGMHWVRQAPGKGLEWVAGIWYDGSNKYYGDSVKGRFTISRDNSRNTLYLHMNSLRADDTAVYYCAREHGGSRSGWYTLRLAYYFDYWGQGTLVTVSS
VL: DIQLTQSPSSLSASVGDRVTITCRASQYINVYLNWYQHKAGRAPKLLIYAASNLQSGVPPRFIGSGSGTDFTLTISSLQSEDFATYYCLQSFTVPRTFGPGTKVDVKR
notes: as for B1
B17: RhD301.160A04 (Fab, V domains shown)
VH: QVQLVESGGGVVQPGRSLRLSCAASGFTFSSYGMHWVRQAPGKGLEWVAVIWFDGGNKYYADSAKGRFTISRDNSKNTLYLQMNSLRAEDTAVYYCARDASVLSGLVTRRLVYYGMDVWGQGTTVTVSS
VL: DVVMTQSPLSLPVTPGEPASISCRSSQSLLHRNGYNYLNWYLQKPGQSPQLLIYLGSNRASGVPDRFSGSGSGTDFTLKISGVEAEDVAFYYCMQGLRTPYTFGQGTKLEIKR
notes: as for B1

biological target: T1, Rhesus D antigen; assay: agglutination assay, Fab on RhD(+)/RhD(-) RBC mix
Description: After each round of panning single colonies were picked for analysis of their binding properties to red blood cells in agglutination assays. Briefly, single colonies were inoculated into 2×YT/100 μg/mL carbenicillin/1% glucose and shaken overnight at 37° C. The next day, DeepWell plates were inoculated using 900 μl 2×YT/100 μg/mL carbenicillin/0.1% glucose and 10 μl overnight culture. The plates were shaken for two hours at 37° C., before Fab induction was performed with addition of 300 μl 2×YT/100 μg/mL carbenicillin/0.25 mM IPTG per well. The plate was shaken overnight at 30° C. The following day, the bacteria were pelleted by centrifugation (3200×g, 4° C., 10 minutes), and re-suspended in 100 μl of 0.8 M NaCl, 0.2×PBS, 8 mM EDTA, and incubated for 15 minutes on ice in order to perform a periplasmic extraction of the Fab fragments. The plate was transferred to −20° C. and finally the suspension was thawed and centrifugation was performed for 10 minutes at 4° C. and 3200×g. The periplasmic extract was used in ELISA assays for analysis of Fab content and in agglutination assays to evaluate the binding potential of the individual Fab fragments. The agglutination assay was performed as follows: RhD(−) and RhD(+) RBC were mixed in a 1:1 ratio, and washed 3 times in PBS. After the final wash, the cell mix was re-suspended in 1% BSA in PBS at a density of 1% cells, 50 μl was added to each well of a 96-plate. Periplasmic extracts were added to the wells. As a positive control Rhesogamma P immunoglobulin (Aventis) was used according to the manufacturer's instructions. The plates were incubated for one hour at room temperature with gentle shaking. The cells were washed three times with PBS, before the secondary antibody was added (goat anti-human Fab/FITC conjugate, Sigma F5512) in a 1:100 dilution. The plates were left for agglutination for one hour at room temperature without shaking. Fab fragments positive in the agglutination assay was determined by visual inspection, and recorded by taking a picture. Quantization of the binding activity of the Fab fragments was performed by FACS analysis of the agglutination samples.

binding result | Binder
binds | B1
binds | B2
binds | B3
binds | B4
binds | B5
binds | B6

biological target: T1, Rhesus D antigen; assay: Fab screening on red blood cells (agglutination/FACS)

binding result | Binder
binds | B7
binds | B8
binds | B9
binds | B10
binds | B11
binds | B12
binds | B13
binds | B14
binds | B15
binds | B16
binds | B17
